Data published in patent US20060259987A1 (UNIVERSITY OF UTAH RESEARCH FOUNDATION, published 2006).
Substitutions are numbered along the chain they refer to. In names and notes the source's numbering stands.

B1: LEAQ.501 (other)
chain: SPVDICTAKPRDIPMNPMCIYRSPEKKATEDEGSEQKIPEATNRRVWELSKANSRFATTFYQHLADSKNDNDNIFLSPLSISTAFAMTKLGACNDTLQQLMEVFKFDTISEKTSDQIHFFFAKLNCRLYRKANKASKLVSANRLFGDKSLTFNETYQDISELVYGAKLQPLDFKENAEQSRAAINKWVSNKTEGRITDVIPSEAINELTVLVLVNTIYFKGLWKSKFSPENTRKELFYKADGESCSASMMYQEGKFRYRRVAEGTQVLELPFKGDDITMVLILPKPEKSLAKVEKELTPEVLQEWLDELEEMMLVVHMPRFRIEDGFSLKEQLQDMGLVDLFSPEKSKLPGIVAEGRDDLYVSDAFHKAFLEVNEEGSEAAASTALDAQGRSLNPNRVTFKANRPFLVFIREVPLNTIIFMGRVANPCVK
B2: LEAQ.505 (other)
chain: B1 chain with D387Q
B3: LEAQ.507 (other)
chain: B1 chain with D387R
B4: LEAQ.509 (other)
chain: B1 chain with D387V
B5: LEAQ.515 (other)
chain: B1 chain with A385L, D387E
B6: LEAQ.516 (other)
chain: B1 chain with A385F, D387E
B7: LEAQ.517 (other)
chain: B1 chain with A385S, D387E
B8: LEAQ.518 (other)
chain: B1 chain with A385T, D387E
B9: 13C.511 (other)
chain: B1 chain with D387E, A388I, Q389A
B10: 13C.432 (other)
chain: B1 chain with A385E, D387E, A388I, Q389A
notes: Made in Drosophila S2 cells (DES) on the S137A background; N-terminus printed as SPVDI---
B11: 13C.431 (other)
chain: B1 chain with A385E, D387E, Q389A
notes: Made in Drosophila S2 cells (DES) on the S137A background; N-terminus printed as SPVDI---; primer codon CTC gives L
B12: 13C.433 (other)
chain: B1 chain with A385E, D387E, A388L, Q389A
notes: as for B10
B13: 13C.434 (other)
chain: B1 chain with A385E, D387E, A388F, Q389A
notes: as for B10
B14: 13C.435 (other)
chain: B1 chain with A385E, D387E, A388W, Q389A
notes: as for B10

Assays:
[1] = molecular target: human factor Xa (human, UniProt P00742 41-179; P00742 235-488, limits assumed); assay: cell-based or functional assay
[2] = molecular target: human thrombin (human, UniProt P00734 328-622); assay: cell-based or functional assay
[3] = molecular target: T1, human neutrophil elastase (human, UniProt P08246 30-247, limits assumed); assay: cell-based or functional assay
T1 sequence (looked up): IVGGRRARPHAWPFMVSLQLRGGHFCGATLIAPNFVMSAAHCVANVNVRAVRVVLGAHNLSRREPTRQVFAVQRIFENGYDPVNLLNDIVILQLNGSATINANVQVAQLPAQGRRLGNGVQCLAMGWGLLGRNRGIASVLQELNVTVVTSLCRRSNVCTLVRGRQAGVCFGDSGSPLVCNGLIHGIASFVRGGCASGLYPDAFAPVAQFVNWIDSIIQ

[4] = molecular target: T2, human neutrophil cathepsin G (human, UniProt P08311 21-244); assay: cell-based or functional assay
T2 sequence (looked up): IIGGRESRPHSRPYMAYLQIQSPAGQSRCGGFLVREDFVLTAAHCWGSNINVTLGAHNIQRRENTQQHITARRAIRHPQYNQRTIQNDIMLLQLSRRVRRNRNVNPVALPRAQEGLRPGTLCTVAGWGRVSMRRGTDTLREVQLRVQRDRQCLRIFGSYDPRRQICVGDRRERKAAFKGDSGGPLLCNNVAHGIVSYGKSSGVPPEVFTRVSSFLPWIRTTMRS

[5] = molecular target: T3, factor Xa (human, UniProt P00742 41-179; P00742 235-488, limits assumed); assay: cell-based or functional assay
[6] = molecular target: T4, thrombin (human, UniProt P00734 328-622); assay: cell-based or functional assay
[7] = molecular target: T3, factor Xa; assay: heparin cofactor assay, HCA expt #2; ATIII titrated on 10 nM fXa + 50 ug/ml UFH, chromogenic readout
Procedure: (§1) After 3 minutes, the reactions were quenched with polybrene and chromogenic substrate S2238 (thrombin) or S2765 (fXa), and the initial rate of chromophore production (405 nm) recorded to obtain a measurement residual, uninhibited thrombin or factor Xa. IC50s were determined from plots of ATIII concentration vs. percent residual target enzyme activity.

[8] = molecular target: T4, thrombin; assay: heparin cofactor assay, HCA expt #2; ATIII titrated on 10 nM thrombin + 50 ug/ml UFH, chromogenic readout
Procedure: as §1

T3 sequence (P00742 41-179 limits assumed, form in doubt, chain 1 of 2): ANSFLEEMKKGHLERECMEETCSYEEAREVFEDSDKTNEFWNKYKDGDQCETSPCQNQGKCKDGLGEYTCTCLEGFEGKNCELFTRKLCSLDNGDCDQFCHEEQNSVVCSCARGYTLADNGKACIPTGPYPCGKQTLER
T3 sequence (P00742 235-488 limits assumed, form in doubt, chain 2 of 2): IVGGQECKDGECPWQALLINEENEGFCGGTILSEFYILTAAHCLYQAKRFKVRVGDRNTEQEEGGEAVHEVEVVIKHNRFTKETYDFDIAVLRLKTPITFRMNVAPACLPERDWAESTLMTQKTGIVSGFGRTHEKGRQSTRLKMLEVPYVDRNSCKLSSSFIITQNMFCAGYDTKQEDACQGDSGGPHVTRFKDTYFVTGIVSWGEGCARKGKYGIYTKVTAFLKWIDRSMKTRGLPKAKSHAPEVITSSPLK
Sequence of human factor Xa (P00742 41-179 limits assumed, chain 1 of 2): as the sequence (P00742 41-179 limits assumed, form in doubt, chain 1 of 2) above
Sequence of human factor Xa (P00742 235-488 limits assumed, chain 2 of 2): as the sequence (P00742 235-488 limits assumed, form in doubt, chain 2 of 2) above

| Binder | IC50 fXa/UFH (HCA #5) [1] [nM] | IC50 fXa/UFH (HCA #6) [1] [nM] | rsd Xa, no add (CA #51, stg 1 conc 200) [1] [%] | IC50 IIa/UFH (HCA #5) [2] [nM] | IC50 IIa/UFH (HCA #6) [2] [nM] | rsd IIa, no add (CA #51, stg 1 conc 200) [2] [%] | rsd IIa, HNE (CA #51, stg 1 conc 200) [3] [%] | rsd Xa, HNE (CA #51, stg 1 conc 200) [3] [%] | rsd IIa, catG (CA #51, stg 1 conc 200) [4] [%] | rsd Xa, catG (CA #51, stg 1 conc 200) [4] [%] | rsd Xa, no add (CA #52, stg 1 conc 200) [1] [%] | rsd IIa, no add (CA #52, stg 1 conc 200) [2] [%] | rsd IIa, HNE (CA #52, stg 1 conc 200) [3] [%] | rsd Xa, HNE (CA #52, stg 1 conc 200) [3] [%] | rsd IIa, catG (CA #52, stg 1 conc 200) [4] [%] | rsd Xa, catG (CA #52, stg 1 conc 200) [4] [%] | rsd. Xa catG; CA expt #7; stg1 conc 200 [5] | rsd. Xa hne; CA expt #7; stg1 conc 200 [5] | rsd. Xa no add; CA expt #7; stg1 conc 200 [5] | rsd. IIa catG; CA expt #7; stg1 conc 200 [6] | also measured |
| --- | --- | --- | --- | --- | --- | --- | --- | --- | --- | --- | --- | --- | --- | --- | --- | --- | --- | --- | --- | --- | --- |
| B1 | 15 | 19 | 1 | 150 | 140 | 2 | 3 | 1 | 3 | -2 | – | – | – | – | – | – | – | – | – | – | – |
| B2 | 16 | – | 1 | 18 | – | 0 | 0 | 1 | 0 | -2 | – | – | – | – | – | – | – | – | – | – | – |
| B3 | 55 | – | -2 | 55 | – | 1 | 2 | -3 | 2 | -2 | – | – | – | – | – | – | – | – | – | – | – |
| B4 | 16 | 20 | -1 | 16 | 18 | 1 | 1 | -3 | 0 | -1 | 3 | 1 | 52 | 10 | 6 | 1 | – | – | – | – | – |
| B5 | – | 18 | – | – | 110 | – | – | – | – | – | 2 | 5 | 3 | 2 | 3 | 1 | – | – | – | – | – |
| B6 | – | 25 | – | – | 120 | – | – | – | – | – | 3 | 4 | 9 | 3 | 5 | 1 | – | – | – | – | – |
| B7 | – | 27 | – | – | 65 | – | – | – | – | – | 2 | 4 | 3 | 2 | 2 | 1 | – | – | – | – | – |
| B8 | – | 27 | – | – | 50 | – | – | – | – | – | 3 | 4 | 3 | 2 | 2 | 1 | – | – | – | – | – |
| B9 | 30 | 40 | -1 | 150 | 130 | 2 | 54 | -3 | 1 | -2 | 2 | 5 | 84 | 92 | 5 | 1 | – | – | – | – | – |
| B10 | – | – | – | – | – | – | – | – | – | – | – | – | – | – | – | – | 3 % of activity without ATIII | 2 % of activity without ATIII | 4 % of activity without ATIII | 5 % of activity without ATIII | rsd. Xa catG; CA expt #8; stg1 conc 200 [5]: 1 % of activity without ATIII; rsd. Xa hne; CA expt #8; stg1 conc 200 [5]: 1 % of activity without ATIII; rsd. Xa no add; CA expt #8; stg1 conc 200 [5]: 1 % of activity without ATIII; rsd. IIa catG; CA expt #8; stg1 conc 200 [6]: 8 % of activity without ATIII; rsd. IIa hne; CA expt #7; stg1 conc 200 [6]: 3 % of activity without ATIII; rsd. IIa hne; CA expt #8; stg1 conc 200 [6]: 16 % of activity without ATIII; rsd. IIa no add; CA expt #7; stg1 conc 200 [6]: 5 % of activity without ATIII; rsd. IIa no add; CA expt #8; stg1 conc 200 [6]: 5 % of activity without ATIII; IC50 [7]: 45 nM; IC50 [8]: 460 nM |
| B11 | – | – | – | – | – | – | – | – | – | – | – | – | – | – | – | – | 3 % of activity without ATIII | 3 % of activity without ATIII | 3 % of activity without ATIII | 5 % of activity without ATIII | rsd. Xa catG; CA expt #8; stg1 conc 200 [5]: 1 % of activity without ATIII; rsd. Xa hne; CA expt #8; stg1 conc 200 [5]: 2 % of activity without ATIII; rsd. Xa no add; CA expt #8; stg1 conc 200 [5]: 2 % of activity without ATIII; rsd. IIa catG; CA expt #8; stg1 conc 200 [6]: 19 % of activity without ATIII; rsd. IIa hne; CA expt #7; stg1 conc 200 [6]: 4 % of activity without ATIII; rsd. IIa hne; CA expt #8; stg1 conc 200 [6]: 25 % of activity without ATIII; rsd. IIa no add; CA expt #7; stg1 conc 200 [6]: 5 % of activity without ATIII; rsd. IIa no add; CA expt #8; stg1 conc 200 [6]: 14 % of activity without ATIII; IC50 [7]: 45 nM; IC50 [8]: 550 nM |
| B12 | – | – | – | – | – | – | – | – | – | – | – | – | – | – | – | – | 2 % of activity without ATIII | 3 % of activity without ATIII | 4 % of activity without ATIII | 5 % of activity without ATIII | rsd. Xa catG; CA expt #8; stg1 conc 200 [5]: 1 % of activity without ATIII; rsd. Xa hne; CA expt #8; stg1 conc 200 [5]: 1 % of activity without ATIII; rsd. Xa no add; CA expt #8; stg1 conc 200 [5]: 1 % of activity without ATIII; rsd. IIa catG; CA expt #8; stg1 conc 200 [6]: 18 % of activity without ATIII; rsd. IIa hne; CA expt #7; stg1 conc 200 [6]: 4 % of activity without ATIII; rsd. IIa hne; CA expt #8; stg1 conc 200 [6]: 20 % of activity without ATIII; rsd. IIa no add; CA expt #7; stg1 conc 200 [6]: 5 % of activity without ATIII; rsd. IIa no add; CA expt #8; stg1 conc 200 [6]: 13 % of activity without ATIII; IC50 [7]: 30 nM; IC50 [8]: 600 nM |
| B13 | – | – | – | – | – | – | – | – | – | – | – | – | – | – | – | – | 2 % of activity without ATIII | 3 % of activity without ATIII | 4 % of activity without ATIII | 5 % of activity without ATIII | rsd. Xa catG; CA expt #8; stg1 conc 200 [5]: 1 % of activity without ATIII; rsd. Xa hne; CA expt #8; stg1 conc 200 [5]: 1 % of activity without ATIII; rsd. Xa no add; CA expt #8; stg1 conc 200 [5]: 2 % of activity without ATIII; rsd. IIa catG; CA expt #8; stg1 conc 200 [6]: 30 % of activity without ATIII; rsd. IIa hne; CA expt #7; stg1 conc 200 [6]: 4 % of activity without ATIII; rsd. IIa hne; CA expt #8; stg1 conc 200 [6]: 12 % of activity without ATIII; rsd. IIa no add; CA expt #7; stg1 conc 200 [6]: 5 % of activity without ATIII; rsd. IIa no add; CA expt #8; stg1 conc 200 [6]: 8 % of activity without ATIII; IC50 [7]: 17 nM; IC50 [8]: 500 nM |
| B14 | – | – | – | – | – | – | – | – | – | – | – | – | – | – | – | – | 3 % of activity without ATIII | 3 % of activity without ATIII | 3 % of activity without ATIII | 5 % of activity without ATIII | rsd. IIa hne; CA expt #7; stg1 conc 200 [6]: 4 % of activity without ATIII; rsd. IIa no add; CA expt #7; stg1 conc 200 [6]: 5 % of activity without ATIII; IC50 [7]: 34 nM; IC50 [8]: 700 nM |
